Test [1] addresses Aβ40 monomer (wild-type amyloid β peptide 1-40) (Artificial).
Test [2] has as its target soluble cross-linked β-amyloid protein species (CAPS) prepared from Aβ40 (Artificial). Nature of the test: EuLISA, plate-immobilised CAPS.
In test [3] the target is Aβ40 monomer (wild-type amyloid β peptide 1-40) (Artificial). Nature of the test: EuLISA, plate-immobilised wild-type Aβ40 monomer.
Test [4] has as its target LC (Jto) fibrils, formed from recombinant Vλ6 Jto. The experiment in a line: EuLISA, plate-immobilised LC fibrils.
Test [5] concerns the target F19P Aβ40 monomer (Artificial). Nature of the test: EuLISA, plate-immobilised F19P Aβ40 monomer (value in brackets).
In test [6] the target is Aβ40 fibrils (Artificial). Nature of the test: EuLISA, plate-immobilised Aβ40 fibrils.

We go through two substances from patent US20090246191A1.

Regarding “ImmunoPure Horseradish peroxidase (HRP) (from UniProt P00433) (enzyme)”, in test [1], the formation of SDS stable cross-linked Aβ40 oligomers (SDS PAGE) was determined as 65%.
For the substance “unfractionated IGIV (Gammagard Liquid, human immune globulin intravenous) (polyclonal serum or antibody)”, the 50% effective concentration (EC50) worked out at 631 nM in test [2]; 861 nM in test [3]; 1510 nM in test [4]; 3670 nM in test [5]; 1080 nM in test [6].
